In general, Kd refers to the concentration at which binding is half-saturated.

In patent US20130336885A1 (Genentech, published 2013) one finds Kd data, which are given here for one molecule.

This experiment has as its target T1, gD epitope-tagged mouse LgR5 expressed on stably transfected 293 cells (mouse, UniProt Q9Z1P4 22-907).
T1 construct: also called gD-tagged mouse LgR5
T1 sequence: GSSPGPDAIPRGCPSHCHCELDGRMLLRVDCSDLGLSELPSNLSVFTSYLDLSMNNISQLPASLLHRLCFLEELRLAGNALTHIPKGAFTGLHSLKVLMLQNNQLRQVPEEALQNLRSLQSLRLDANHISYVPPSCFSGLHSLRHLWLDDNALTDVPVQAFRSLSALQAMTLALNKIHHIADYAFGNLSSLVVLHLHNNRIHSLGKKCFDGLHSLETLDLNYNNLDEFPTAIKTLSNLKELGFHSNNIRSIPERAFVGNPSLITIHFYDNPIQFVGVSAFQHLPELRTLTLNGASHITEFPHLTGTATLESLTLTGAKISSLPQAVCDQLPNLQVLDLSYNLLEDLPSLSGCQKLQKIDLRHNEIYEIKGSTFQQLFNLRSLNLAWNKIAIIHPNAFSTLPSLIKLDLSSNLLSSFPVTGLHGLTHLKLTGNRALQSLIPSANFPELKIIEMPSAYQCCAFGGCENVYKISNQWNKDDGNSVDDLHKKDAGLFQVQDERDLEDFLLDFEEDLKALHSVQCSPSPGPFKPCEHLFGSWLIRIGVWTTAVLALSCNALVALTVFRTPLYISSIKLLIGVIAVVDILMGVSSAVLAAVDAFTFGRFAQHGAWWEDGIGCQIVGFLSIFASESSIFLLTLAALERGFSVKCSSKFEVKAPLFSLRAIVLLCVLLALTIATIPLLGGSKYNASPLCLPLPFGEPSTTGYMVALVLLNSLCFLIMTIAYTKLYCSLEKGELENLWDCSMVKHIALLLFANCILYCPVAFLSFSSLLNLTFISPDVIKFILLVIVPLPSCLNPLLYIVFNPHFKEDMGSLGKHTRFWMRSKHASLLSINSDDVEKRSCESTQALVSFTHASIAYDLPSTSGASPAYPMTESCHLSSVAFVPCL
As to the kind of experiment: Scatchard analysis, competition of 125I-labeled with unlabeled antibody on 293 cells stably expressing mouse LgR5. The protocol:
Scatchard analysis was performed following standard procedures (Holmes et al., Science 256:1205-1210 (1992)) to determine the relative binding affinities of YW353, ch8E11 and hu8E11v2 antibodies.
Anti-LgrS antibodies were [I¹²⁵] labeled using the indirect Iodogen method. […] Competition assay mixtures of 50 μL volume containing a fixed concentration of [I¹²⁵] labeled antibody and decreasing concentrations of serially diluted, unlabeled antibody were placed into 96-well plates. 293 cells stably expression human, rat, or mouse LgrS were cultured in growth media at 37° C. in 5% CO₂. Cells were detached from the flask using Sigma Cell Dissociation Solution and were washed with binding buffer, which consisted of Dulbecco's Modified Eagle Medium (DMEM) with 2% fetal bovine serum (FBS), 50 mM HEPES (pH 7.2) and 0.1% sodium azide. The washed cells were added to the 96 well plates at a density of 250,000 cells in 0.2 mL of binding buffer. The final concentration of the labeled antibody in each well was 200 μM. […] The filters were counted on a Wallac Wizard 1470 gamma counter (PerkinElmer Life and Analytical Sciences Inc.; Wellesley, Mass.). The binding data was evaluated using NewLigand software (Genentech), which uses the fitting algorithm of Munson and Robard to determine the binding affinity of the antibody (Munson and Robard 1980)

B1: humanized monoclonal antibody 8E11.v2 (antibody, human IgG1, kappa, V domains shown)
VH: EVQLVQSGAEVKKPGASVKVSCKASGYTFSAYWIEWVRQAPGQGLEWIGEILPGSDSTDYNEKFKVRATFTSDTSTSTVYLELSSLRSEDTAVYYCARGGHYGSLDYWGQGTLVTVSS
VL: DIVMTQSPDSLAVSLGERATINCRASESVDNYGNSFMHWYQQKPGQPPKLLIYLASNLESGVPDRFSGSGSGTDFTLTISSLQAEDVAVYYCQQNYEDPFTFGQGTKVEIKR
notes: It was assessed as an IgG; also called hu8E11.v2; hu8E11v2
As for B1, the Kd was found to be 0.6 nM.
